Test results taken from patent US20180044385A1 (published 2018).
Each block holds one binder with its values, some of them ahead of it.

Molecular target: human IgG1 scaffold
Test: SPR

Kd: 3 µM
B1: WT (other)
chain: LTPAVTTYKLVINGKTLKGETTTKAVDAATAEKVFKQYANDNGVDGEWTYDDATKTFTVTEKPEVI

Kd: 0.024 µM
B2: A1 (designed binder)
chain: MKGETTTEAVDAATAEKVFKQYANDNGVDGEWTYDDATKTFTVTEKPEVIDASELTPAVTTYKLVINGRTLSGYTTTTAVDAATAEKVFKQYAYVHEVDGEWTYDDATKTFTVTEKPEVIDASELTPAVTTYKLVINGRTLSGETTTKAVDAETAEKAFKQYANDNGVDGVWTYDDATKTFTVTE
